The target in this assay is T1, human PD-L1 (WT) (human, UniProt Q9NZQ7 19-127, limits assumed).
T1 construct: also called human PD-L1 N-terminal IgV domain
The experiment in a line: affinity measurement, method not stated.

Consider one molecule from patent publication US20230017515A1 (JIANGSU ALPHAMAB BIOPHARMACEUTICALS, published 2023).

T1 sequence (Q9NZQ7 19-127 limits assumed): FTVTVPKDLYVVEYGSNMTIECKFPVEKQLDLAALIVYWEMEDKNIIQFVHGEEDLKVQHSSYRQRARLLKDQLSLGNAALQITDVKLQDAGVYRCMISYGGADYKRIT

B1: PD-L1 ISVD-9 (VHH)
VHH: QVQLVESGGGLVQPGGSLRLSCAASGKMSSRRCMAWFRQAPGKERERVAKLLTTSGSTYLADSVKGRFTISRDNSKNTVYLQMNSLRAEDTAVYYCAADSFEDPTCTLVTSSGAFQYWGQGTLVTVSS
notes: also called ISVD specific for PD-L1; aPDL1.9
By Kd is commonly meant the equilibrium constant for the complex coming apart. Higher therefore signals weaker binding. B1 gave a Kd of 5.92 nM.
